Residue numbers refer to the chain shown, from its start. Names may count otherwise.
B1: Factor VIII SingleChain T1654C mutant (other)
chain: ATRRYYLGAVELSWDYMQSDLGELPVDARFPPRVPKSFPFNTSVVYKKTLFVEFTDHLFNIAKPRPPWMGLLGPTIQAEVYDTVVITLKNMASHPVSLHAVGVSYWKASEGAEYDDQTSQREKEDDKVFPGGSHTYVWQVLKENGPMASDPLCLTYSYLSHVDLVKDLNSGLIGALLVCREGSLAKEKTQTLHKFILLFAVFDEGKSWHSETKNSLMQDRDAASARAWPKMHTVNGYVNRSLPGLIGCHRKSVYWHVIGMGTTPEVHSIFLEGHTFLVRNHRQASLEISPITFLTAQTLLMDLGQFLLFCHISSHQHDGMEAYVKVDSCPEEPQLRMKNNEEAEDYDDDLTDSEMDVVRFDDDNSPSFIQIRSVAKKHPKTWVHYIAAEEEDWDYAPLVLAPDDRSYKSQYLNNGPQRIGRKYKKVRFMAYTDETFKTREAIQHESGILGPLLYGEVGDTLLIIFKNQASRPYNIYPHGITDVRPLYSRRLPKGVKHLKDFPILPGEIFKYKWTVTVEDGPTKSDPRCLTRYYSSFVNMERDLASGLIGPLLICYKESVDQRGNQIMSDKRNVILFSVFDENRSWYLTENIQRFLPNPAGVQLEDPEFQASNIMHSINGYVFDSLQLSVCLHEVAYWYILSIGAQTDFLSVFFSGYTFKHKMVYEDTLTLFPFSGETVFMSMENPGLWILGCHNSDFRNRGMTALLKVSSCDKNTGDYYEDSYEDISAYLLSKNNAIEPRSFSQNSRHRSTRQKQFNATTIPENTCLQSDQEEIDYDDTISVEMKKEDFDIYDEDENQSPRSFQKKTRHYFIAAVERLWDYGMSSSPHVLRNRAQSGSVPQFKKVVFQEFTDGSFTQPLYRGELNEHLGLLGPYIRAEVEDNIMVTFRNQASRPYSFYSSLISYEEDQRQGAEPRKNFVKPNETKTYFWKVQHHMAPTKDEFDCKAWAYFSDVDLEKDVHSGLIGPLLVCHTNTLNPAHGRQVTVQEFALFFTIFDETKSWYFTENMERNCRAPCNIQMEDPTFKENYRFHAINGYIMDTLPGLVMAQDQRIRWYLLSMGSNENIHSIHFSGHVFTVRKKEEYKMALYNLYPGVFETVEMLPSKAGIWRVECLIGEHLHAGMSTLFLVYSNKCQTPLGMASGHIRDFQITASGQYGQWAPKLARLHYSGSINAWSTKEPFSWIKVDLLAPMIIHGIKTQGARQKFSSLYISQFIIMYSLDGKKWQTYRGNSTGTLMVFFGNVDSSGIKHNIFNPPIIARYIRLHPTHYSIRSTLRMELMGCDLNSCSMPLGMESKAISDAQITASSYFTNMFATWSPSKARLHLQGRSNAWRPQVNNPKEWLQVDFQKTMKVTGVTTQGVKSLLTSMYVKEFLISSSQDGHQWTLFFQNGKVKVFQGNQDSFTPVVNSLDPPLLTRYLRIHPQSWVHQIALRMEVLGCEAQDLY
notes: Single-chain FVIII with partial B-domain deletion (per WO 2004/067566); also called FVIII-SC T1654C; Cys residue at FVIII aa position 1654
B2: Factor VIII SingleChain Q1686C mutant (other)
chain: B1 chain with C766T, Q798C
notes: Single-chain FVIII with partial B-domain deletion; also called FVIII-SC Q1686C; Cys residue at FVIII aa position 1686
B3: Factor VIII SingleChain N2129C mutant (other)
chain: B1 chain with C766T, N1241C
notes: Single-chain FVIII with partial B-domain deletion; also called FVIII-SC N2129C; Cys residue at FVIII aa position 2129
B4: Factor VIII SingleChain I1679C mutant (other)
chain: B1 chain with C766T, I791C
notes: Single-chain FVIII with partial B-domain deletion; also called FVIII-SC I1679C mutant; Cys residue at FVIII aa position 1679
B5: Factor VIII SingleChain S1687C mutant (other)
chain: B1 chain with C766T, S799C
notes: Single-chain FVIII with partial B-domain deletion; also called FVIII-SC S1687C; Cys residue at FVIII aa position 1687
B6: Factor VIII SingleChain E1684C mutant (other)
chain: B1 chain with C766T, E796C
notes: Single-chain FVIII with partial B-domain deletion; also called FVIII-SC E1684C; Cys residue at FVIII aa position 1684

Legend:
[1] = molecular target: VWF-FP (albumin-fused von Willebrand Factor) (human); assay: covalent-FVIII ELISA over FVIII activity assay
Sequence of VWF-FP (albumin-fused von Willebrand Factor) (human) (chain, as listed by the source): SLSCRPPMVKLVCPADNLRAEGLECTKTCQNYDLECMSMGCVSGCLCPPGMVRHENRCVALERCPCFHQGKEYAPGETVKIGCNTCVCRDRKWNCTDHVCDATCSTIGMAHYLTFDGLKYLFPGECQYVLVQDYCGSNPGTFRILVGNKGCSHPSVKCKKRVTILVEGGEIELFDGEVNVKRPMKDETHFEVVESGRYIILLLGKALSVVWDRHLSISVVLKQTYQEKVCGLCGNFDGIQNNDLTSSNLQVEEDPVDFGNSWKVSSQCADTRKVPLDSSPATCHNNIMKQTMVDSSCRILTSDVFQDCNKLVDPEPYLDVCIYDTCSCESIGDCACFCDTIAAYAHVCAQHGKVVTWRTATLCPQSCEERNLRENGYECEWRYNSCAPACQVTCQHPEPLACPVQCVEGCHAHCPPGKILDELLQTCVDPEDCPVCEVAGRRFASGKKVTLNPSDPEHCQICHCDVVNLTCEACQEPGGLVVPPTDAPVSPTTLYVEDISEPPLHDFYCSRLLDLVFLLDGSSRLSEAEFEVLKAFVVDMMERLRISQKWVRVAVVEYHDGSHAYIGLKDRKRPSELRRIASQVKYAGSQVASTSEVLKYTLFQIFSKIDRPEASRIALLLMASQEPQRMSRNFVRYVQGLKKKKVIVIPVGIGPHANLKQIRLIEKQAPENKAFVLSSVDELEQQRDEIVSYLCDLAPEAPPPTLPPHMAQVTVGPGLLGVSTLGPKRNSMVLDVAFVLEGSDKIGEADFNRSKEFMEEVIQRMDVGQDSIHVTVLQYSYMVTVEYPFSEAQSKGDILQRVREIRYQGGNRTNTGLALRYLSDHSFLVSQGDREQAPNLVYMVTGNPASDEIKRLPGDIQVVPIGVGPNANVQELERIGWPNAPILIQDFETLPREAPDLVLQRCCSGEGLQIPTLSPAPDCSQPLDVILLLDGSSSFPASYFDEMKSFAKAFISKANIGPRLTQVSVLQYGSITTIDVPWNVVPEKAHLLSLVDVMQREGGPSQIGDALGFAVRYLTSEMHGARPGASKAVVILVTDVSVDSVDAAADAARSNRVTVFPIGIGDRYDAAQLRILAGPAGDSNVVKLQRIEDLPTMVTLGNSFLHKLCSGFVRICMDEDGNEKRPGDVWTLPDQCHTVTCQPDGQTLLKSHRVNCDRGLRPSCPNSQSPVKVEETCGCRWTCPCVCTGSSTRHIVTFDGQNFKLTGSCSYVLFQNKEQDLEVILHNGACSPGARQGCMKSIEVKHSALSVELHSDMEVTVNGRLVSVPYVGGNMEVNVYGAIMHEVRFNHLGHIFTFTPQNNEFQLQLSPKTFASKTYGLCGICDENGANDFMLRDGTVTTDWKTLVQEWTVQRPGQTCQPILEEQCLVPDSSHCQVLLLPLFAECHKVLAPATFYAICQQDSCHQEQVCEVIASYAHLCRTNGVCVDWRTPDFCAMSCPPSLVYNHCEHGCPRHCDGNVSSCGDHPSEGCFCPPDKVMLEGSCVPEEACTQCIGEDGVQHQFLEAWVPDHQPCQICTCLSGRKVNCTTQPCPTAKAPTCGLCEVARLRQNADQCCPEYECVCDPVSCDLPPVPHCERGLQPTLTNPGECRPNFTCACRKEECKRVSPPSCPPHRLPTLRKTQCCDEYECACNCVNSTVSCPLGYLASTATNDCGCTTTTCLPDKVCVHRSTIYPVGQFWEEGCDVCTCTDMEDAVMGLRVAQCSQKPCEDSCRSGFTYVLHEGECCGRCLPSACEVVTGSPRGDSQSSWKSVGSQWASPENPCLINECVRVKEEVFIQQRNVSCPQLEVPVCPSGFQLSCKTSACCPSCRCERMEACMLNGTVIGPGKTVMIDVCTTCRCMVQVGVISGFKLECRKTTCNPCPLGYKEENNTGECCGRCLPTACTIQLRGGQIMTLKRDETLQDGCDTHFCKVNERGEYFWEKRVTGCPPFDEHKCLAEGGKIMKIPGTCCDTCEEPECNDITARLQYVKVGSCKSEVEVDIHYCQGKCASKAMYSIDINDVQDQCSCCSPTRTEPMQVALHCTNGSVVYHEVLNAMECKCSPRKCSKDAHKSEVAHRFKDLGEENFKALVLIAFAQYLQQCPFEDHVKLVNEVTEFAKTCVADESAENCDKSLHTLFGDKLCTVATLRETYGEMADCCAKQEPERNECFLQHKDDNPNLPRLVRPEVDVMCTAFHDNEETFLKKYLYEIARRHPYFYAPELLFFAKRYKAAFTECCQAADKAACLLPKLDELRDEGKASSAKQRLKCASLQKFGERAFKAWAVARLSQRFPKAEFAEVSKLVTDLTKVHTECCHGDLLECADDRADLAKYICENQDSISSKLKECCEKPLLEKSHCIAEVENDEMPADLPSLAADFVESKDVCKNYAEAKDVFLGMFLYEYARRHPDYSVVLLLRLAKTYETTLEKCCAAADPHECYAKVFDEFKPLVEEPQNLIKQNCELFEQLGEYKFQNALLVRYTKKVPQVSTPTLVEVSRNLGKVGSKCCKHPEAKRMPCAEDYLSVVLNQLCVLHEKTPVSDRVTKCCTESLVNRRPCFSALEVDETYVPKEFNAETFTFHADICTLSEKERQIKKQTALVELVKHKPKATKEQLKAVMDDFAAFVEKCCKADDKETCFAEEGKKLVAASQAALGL

[2] = molecular target: VWF-FP (albumin-fused von Willebrand Factor) (human); assay: covalent-FVIII ELISA over FVIII antigen ELISA
[3] = molecular target: T1, VWF-FP N1134C mutant (albumin-fused von Willebrand Factor) (human); assay: ELISA of co-expression supernatant: anti-VWF capture, 350 mM CaCl2 wash, anti-FVIII detection
T1 construct: Stably expressed in CHO cells with furin co-transfected; also called VWF-FP mutant N1134C; Cys residue at VWF aa position 1134; not shown: linker between VWF and albumin, made in analogy to WO 2009/156137
T1 sequence (chain, as listed by the source N1134C N1134C): as the sequence (chain, as listed by the source) above, with N371C counted along it

[4] = molecular target: T2, VWF-FP P1079C mutant (albumin-fused von Willebrand Factor) (human); assay: as above
T2 construct: also called VWF-FP mutant P1079C; Cys residue at VWF aa position 1079; not shown: linker between VWF and albumin, made in analogy to WO 2009/156137
T2 sequence (chain, as listed by the source P1079C P1079C): as the sequence (chain, as listed by the source) above, with P316C counted along it

[5] = molecular target: T1, VWF-FP N1134C mutant (albumin-fused von …); assay: covalent-FVIII ELISA over FVIII antigen ELISA
[6] = molecular target: T2, VWF-FP P1079C mutant (albumin-fused von …); assay: covalent-FVIII ELISA over FVIII antigen ELISA
[7] = molecular target: T1, VWF-FP N1134C mutant (albumin-fused von …); assay: covalent-FVIII ELISA over FVIII activity assay
[8] = molecular target: T2, VWF-FP P1079C mutant (albumin-fused von …); assay: covalent-FVIII ELISA over FVIII activity assay
[9] = molecular target: T3, VWF-FP R768C mutant (albumin-fused von Willebrand Factor) (human); assay: ELISA of co-expression supernatant: anti-VWF capture, 350 mM CaCl2 wash, anti-FVIII detection
T3 construct: Stably expressed in CHO cells with furin co-transfected; also called VWF-FP mutant R768C; Cys residue at VWF aa position 768; not shown: linker between VWF and albumin, made in analogy to WO 2009/156137
T3 sequence (chain, as listed by the source R768C R768C): as the sequence (chain, as listed by the source) above, with R5C counted along it

[10] = molecular target: T4, VWF-FP K1116C mutant (albumin-fused von Willebrand Factor) (human); assay: as above
T4 construct: Stably expressed in CHO cells with furin co-transfected; also called VWF-FP mutant K1116C; Cys residue at VWF aa position 1116; not shown: linker between VWF and albumin, made in analogy to WO 2009/156137
T4 sequence (chain, as listed by the source K1116C K1116C): as the sequence (chain, as listed by the source) above, with K353C counted along it

[11] = molecular target: T5, VWF-FP E1015C mutant (albumin-fused von Willebrand Factor) (human); assay: as above
T5 construct: Stably expressed in CHO cells with furin co-transfected; also called VWF-FP mutant E1015C; Cys residue at VWF aa position 1015; not shown: linker between VWF and albumin, made in analogy to WO 2009/156137
T5 sequence (chain, as listed by the source E1015C E1015C): as the sequence (chain, as listed by the source) above, with E252C counted along it

[12] = molecular target: T3, VWF-FP R768C mutant (albumin-fused von …); assay: covalent-FVIII ELISA over FVIII antigen ELISA
[13] = molecular target: T4, VWF-FP K1116C mutant (albumin-fused von …); assay: covalent-FVIII ELISA over FVIII antigen ELISA
[14] = molecular target: T5, VWF-FP E1015C mutant (albumin-fused von …); assay: covalent-FVIII ELISA over FVIII antigen ELISA
[15] = molecular target: T3, VWF-FP R768C mutant (albumin-fused von …); assay: covalent-FVIII ELISA over FVIII activity assay
[16] = molecular target: T4, VWF-FP K1116C mutant (albumin-fused von …); assay: covalent-FVIII ELISA over FVIII activity assay
[17] = molecular target: T5, VWF-FP E1015C mutant (albumin-fused von …); assay: covalent-FVIII ELISA over FVIII activity assay
[18] = molecular target: T6, VWF-FP H817C mutant (albumin-fused von Willebrand Factor) (human); assay: ELISA of co-expression supernatant: anti-VWF capture, 350 mM CaCl2 wash, anti-FVIII detection
T6 construct: Stably expressed in CHO cells with furin co-transfected; also called VWF-FP mutant H817C; Cys residue at VWF aa position 817; not shown: linker between VWF and albumin, made in analogy to WO 2009/156137
T6 sequence (chain, as listed by the source H817C H817C): as the sequence (chain, as listed by the source) above, with H54C counted along it

[19] = molecular target: T6, VWF-FP H817C mutant (albumin-fused von …); assay: covalent-FVIII ELISA over FVIII antigen ELISA
[20] = molecular target: T6, VWF-FP H817C mutant (albumin-fused von …); assay: covalent-FVIII ELISA over FVIII activity assay

| Molecule | covalent FVIII [3] [amU/ml] | ratio covalent FVIII/Total FVIII antigen [5] | ratio covalent FVIII/Total FVIII activity [7] | covalent FVIII [9] [amU/ml] | covalent FVIII [10] [amU/ml] | ratio covalent FVIII/Total FVIII antigen [12] | ratio covalent FVIII/Total FVIII antigen [13] | ratio covalent FVIII/Total FVIII activity [15] | ratio covalent FVIII/Total FVIII activity [16] | further results |
| --- | --- | --- | --- | --- | --- | --- | --- | --- | --- | --- |
| FVIII-SingleChain with VWF-derived C3-C4-C5-C6-CK sequence added to its C-terminus and a thrombin cleavage site between them |  |  |  |  |  |  |  |  |  | ratio of covalent FVIII to total FVIII activity [1]: 5.78; ratio of covalent FVIII to total FVIII antigen [2]: 7.47 |
| B1 | 424 | 0.85 | 1.14 |  |  |  |  |  |  | covalent FVIII [4]: 409 amU/ml; ratio covalent FVIII/Total FVIII antigen [6]: 0.97; ratio covalent FVIII/Total FVIII activity [8]: 1.59 |
| B2 | 693 | 5.43 | 0.76 | 506 | 2740 | 0.51 | 5.24 | 1.03 | 0.86 | covalent FVIII [11]: 1640 amU/ml; ratio covalent FVIII/Total FVIII antigen [14]: 0.64; ratio covalent FVIII/Total FVIII activity [17]: 1.21 |
| B3 |  |  |  |  |  |  |  |  |  | covalent FVIII [18]: 292 amU/ml; ratio covalent FVIII/Total FVIII antigen [19]: 0.33; ratio covalent FVIII/Total FVIII activity [20]: 1.02 |
| B4 |  |  |  |  | 992 |  | 0.85 |  | 1.12 | covalent FVIII [4]: 398 amU/ml; ratio covalent FVIII/Total FVIII antigen [6]: 1.14; ratio covalent FVIII/Total FVIII activity [8]: 1.26 |
| B5 | 843 | 2.05 | 1.05 | 390 |  | 0.49 |  | 1.44 |  |  |
| B6 | 741 | 3.15 | 0.88 | 491 | 1150 | 0.69 | 1.53 | 1.05 | 0.38 |  |

From patent publication US20180092966A1 (CSL, published 2018)
